We go through one substance from US20040214774A1.

Assay [1] deals with apoE4 (human) (UniProt P02649). As to the kind of experiment: competitive inhibition ELISA: lipidated apoE4 100 nM preincubated with Aβ12-28P (0-400 nM), added to Aβ1-40 coated wells; one-site competition fit. In general terms: In an ELISA, binding on a coated surface is turned into a signal by an enzyme label.
Assay [2] has as its target apoE4 (human) (UniProt P02649). Kind of assay: cell-based or functional assay.
The target of the next assay is apoE3 (human) (UniProt P02649). Kind of assay: cell-based or functional assay.
Sequence of apoE3 (human) (P02649 19-317 limits assumed): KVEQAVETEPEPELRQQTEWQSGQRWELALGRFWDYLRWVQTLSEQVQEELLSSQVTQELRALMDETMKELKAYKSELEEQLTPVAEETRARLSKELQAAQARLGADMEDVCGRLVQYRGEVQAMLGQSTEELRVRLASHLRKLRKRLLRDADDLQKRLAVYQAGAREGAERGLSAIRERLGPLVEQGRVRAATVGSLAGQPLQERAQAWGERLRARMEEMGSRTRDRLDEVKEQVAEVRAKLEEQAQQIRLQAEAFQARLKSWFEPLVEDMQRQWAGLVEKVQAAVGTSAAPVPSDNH

Sequence of apoE4 (human) (P02649 19-317 C130R limits assumed): as the sequence (P02649 19-317 limits assumed) above, with C112R counted along it

Consider Aβ12-28P (peptide), for which the IC50 (usually the concentration needed to halve the response being measured) with apoE4 (human) [1] was found to be 36.7 nM. In the assay with apoE4 (human) [2], this substance came in with a relative reduction in Thioflavin-T fluorescence of Aβ1-42 with apoE4 after 24 h of incubation of 25.3% and a relative reduction in Thioflavin-T fluorescence of Aβ1-42 with apoE4 by day six of 52.3%. In the assay with apoE3 (human), this substance displayed a relative reduction in Thioflavin-T fluorescence of Aβ1-42 with apoE3 after 24 h of incubation of 14.5% and a relative reduction in Thioflavin-T fluorescence of Aβ1-42 with apoE3 by day six of 48.3%.
